Test results reported in publication doi:10.1101/2025.11.05.686565 (bioRxiv, 2025).

Target: the molecule itself
Experiment: cryo-EM structure

B1: full-length, strep-tagged human Wdr37 (natural protein, UniProt Q9Y2I8 1-494, looked up)
chain: MPTESASCSTARQTKQKRKSHSLSIRRTNSSEQERTGLPRDMLEGQDSKLPSSVRSTLLELFGQIEREFENLYIENLELRREIDTLNERLAAEGQAIDGAELSKGQLKTKASHSTSQLSQKLKTTYKASTSKIVSSFKTTTSRAACQLVKEYIGHRDGIWDVSVAKTQPVVLGTASADHTALLWSIETGKCLVKYAGHVGSVNSIKFHPSEQLALTASGDQTAHIWRYAVQLPTPQPVADTSISGEDEVECSDKDEPDLDGDVSSDCPTIRVPLTSLKSHQGVVIASDWLVGGKQAVTASWDRTANLYDVETSELVHSLTGHDQELTHCCTHPTQRLVVTSSRDTTFRLWDFRDPSIHSVNVFQGHTDTVTSAVFTVGDNVVSGSDDRTVKVWDLKNMRSPIATIRTDSAINRINVCVGQKIIALPHDNRQVRLFDMSGVRLARLPRSSRQGHRRMVCCSAWSEDHPVCNLFTCGFDRQAIGWNINIPALLQEK
- stoichiometry N: 2
